Source: US20050064507

Columns and labels:
[1] = test system: T1, DGKI peptide NRKKKRTSFKRKA (SEQ ID NO:79)
T1 sequence: NRKKKRTSFKRKA

[2] = test system: T2, ERN1 peptide KLAVGRHSFSRRSGV (SEQ ID NO:94)
T2 sequence: KLAVGRHSFSRRSGV

[3] = test system: T3, PRKCM peptide VHYTSKDTLRKRHYWR (SEQ ID NO:91)
T3 sequence: VHYTSKDTLRKRHYWR

[4] = test system: T4, NR4A3 peptide KEVVRTDSLKGRRGR (SEQ ID NO:109)
T4 sequence: KEVVRTDSLKGRRGR

[5] = test system: T5, PLEK peptide KFARKSTRRSIRLPE (SEQ ID NO:78)
T5 sequence: KFARKSTRRSIRLPE

[6] = test system: T6, CACNA1C peptide RGFLRSASLGRRASFHLE (SEQ ID NO:96)
T6 sequence: RGFLRSASLGRRASFHLE

[7] = test system: T7, p164-RhoGEF peptide PRLIRRGSKKRPAR (SEQ ID NO:82)
T7 sequence: PRLIRRGSKKRPAR

[8] = test system: T8, SPTBN4 peptide EGGDRRASGRRK (SEQ ID NO:110)
T8 sequence: EGGDRRASGRRK

[9] = test system: T9, DGKZ peptide KKKKRASFKRKSSKKG (SEQ ID NO:77)
T9 sequence: KKKKRASFKRKSSKKG

[10] = test system: T10, SDPR peptide EKIKRSSLKKVDSLKK (SEQ ID NO:104)
T10 sequence: EKIKRSSLKKVDSLKK

[11] = test system: T11, MACMARCKS peptide KKPFKLSGLSFKRNRKE (SEQ ID NO:88)
T11 sequence: KKPFKLSGLSFKRNRKE

[12] = test system: T12, MARCKS peptide KKKRFSFKKSFKLSGFSFKK (SEQ ID NO:111)
T12 sequence: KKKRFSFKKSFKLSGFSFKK

[13] = test system: T13, PPP1R14A peptide QKRHARVTVKYDRRE (SEQ ID NO:107)
T13 sequence: QKRHARVTVKYDRRE

[14] = test system: T14, AKAP12 peptide AGWRKKTSFRKPKED (SEQ ID NO:99)
T14 sequence: AGWRKKTSFRKPKED

[15] = test system: T15, ARHGAP6 peptide DGQKRKKSLRKKLD (SEQ ID NO:92)
T15 sequence: DGQKRKKSLRKKLD

[16] = test system: T16, GABRB2 peptide QKKSRLRRRASQLKI (SEQ ID NO:84)
T16 sequence: QKKSRLRRRASQLKI

[17] = test system: T17, NEURL peptide ALRRPSLRREADD (SEQ ID NO:105)
T17 sequence: ALRRPSLRREADD

[18] = test system: T18, ARHGAP4 peptide AGPLRKSSLKKGGRL (SEQ ID NO:98)
T18 sequence: AGPLRKSSLKKGGRL

[19] = test system: T19, PLEC1 peptide KRERKTSSKSSVRKRR (SEQ ID NO:81)
T19 sequence: KRERKTSSKSSVRKRR

[20] = test system: T20, EBNA1BP2 peptide KRPGKKGSNKRPGKR (SEQ ID NO:112)
T20 sequence: KRPGKKGSNKRPGKR

[21] = test system: T21, MLK3 peptide HVRRRRGTFKRSKLRARD (SEQ ID NO:76)
T21 sequence: HVRRRRGTFKRSKLRARD

[22] = test system: T22, MYBPC3 peptide LLKKRDSFRTPRDSKLE (SEQ ID NO:103)
T22 sequence: LLKKRDSFRTPRDSKLE

[23] = test system: T23, CHRM1 peptide RKIPKRPGSVHRTPSRQ (SEQ ID NO:83)
T23 sequence: RKIPKRPGSVHRTPSRQ

[24] = test system: T24, ASIP peptide KKRSSKKEASMKKVVRP (SEQ ID NO:97)
T24 sequence: KKRSSKKEASMKKVVRP

[25] = test system: T25, MARCKS peptide KKKKKRFSFKKSFKL (SEQ ID NO:80)
T25 sequence: KKKKKRFSFKKSFKL

[26] = test system: T26, ADD2 peptide KKKFRTPSFLKKSKK (SEQ ID NO:95)
T26 sequence: KKKFRTPSFLKKSKK

[27] = test system: T27, NF1 peptide AGSFKRNSIKKIV (SEQ ID NO:102)
T27 sequence: AGSFKRNSIKKIV

[28] = test system: T28, ANK1 peptide AQIVKRASLKRGKQ (SEQ ID NO:90)
T28 sequence: AQIVKRASLKRGKQ

[29] = test system: T29, KCNH2 peptide RQRKRKLSFRRRTDKD (SEQ ID NO:86)
T29 sequence: RQRKRKLSFRRRTDKD

[30] = test system: T30, FLJ20574 peptide GENVLKKSMKSRVKG (SEQ ID NO:113)
T30 sequence: GENVLKKSMKSRVKG

[31] = test system: T31, PSCD2 peptide AARKKRISVKKKQEQ (SEQ ID NO:93)
T31 sequence: AARKKRISVKKKQEQ

[32] = test system: T32, SYTL4 peptide RQGKRKTSIKRDTVNPL (SEQ ID NO:87)
T32 sequence: RQGKRKTSIKRDTVNPL

[33] = test system: T33, MAP3K14 peptide WKGKRRSKARKKRK (SEQ ID NO:100)
T33 sequence: WKGKRRSKARKKRK

[34] = test system: T34, CREB1 peptide EILSRRPSYRKILND (SEQ ID NO:106)
T34 sequence: EILSRRPSYRKILND

[35] = test system: T35, PRKCA peptide RFARKGSLRQKNV (SEQ ID NO:85)
T35 sequence: RFARKGSLRQKNV

[36] = test system: T36, PARIS1 peptide EYLERRASRRRAV (SEQ ID NO:89)
T36 sequence: EYLERRASRRRAV

[37] = test system: T37, NCF1 peptide GAPPRRSSIRNAH (SEQ ID NO:101)
T37 sequence: GAPPRRSSIRNAH

[38] = test system: T38, LIMK2 peptide KATTKKRTLRKNDRK (SEQ ID NO:108)
T38 sequence: KATTKKRTLRKNDRK

| Substance | in vitro phosphorylation (% of best substrate) [1] | in vitro phosphorylation (% of best substrate) [2] | in vitro phosphorylation (% of best substrate) [3] | in vitro phosphorylation (% of best substrate) [4] | in vitro phosphorylation (% of best substrate) [5] | in vitro phosphorylation (% of best substrate) [6] | in vitro phosphorylation (% of best substrate) [7] | in vitro phosphorylation (% of best substrate) [8] | in vitro phosphorylation (% of best substrate) [9] | in vitro phosphorylation (% of best substrate) [10] | in vitro phosphorylation (% of best substrate) [11] | in vitro phosphorylation (% of best substrate) [12] | in vitro phosphorylation (% of best substrate) [13] | in vitro phosphorylation (% of best substrate) [14] | in vitro phosphorylation (% of best substrate) [15] | in vitro phosphorylation (% of best substrate) [16] | in vitro phosphorylation (% of best substrate) [17] | in vitro phosphorylation (% of best substrate) [18] | in vitro phosphorylation (% of best substrate) [19] | in vitro phosphorylation (% of best substrate) [20] | further results |
| --- | --- | --- | --- | --- | --- | --- | --- | --- | --- | --- | --- | --- | --- | --- | --- | --- | --- | --- | --- | --- | --- |
| AKT1 | 7 | 9 | 5 | 2 | 2 | 32 | 9 | 1 | 8 | 2 | 10 | 3 | 3 | 6 | 2 | 10 | 12 | 7 | 9 | 3 | in vitro phosphorylation (% of best substrate) [21]: 100; in vitro phosphorylation (% of best substrate) [22]: 7; in vitro phosphorylation (% of best substrate) [23]: 6; in vitro phosphorylation (% of best substrate) [24]: 10; in vitro phosphorylation (% of best substrate) [25]: 6; in vitro phosphorylation (% of best substrate) [26]: 9; in vitro phosphorylation (% of best substrate) [27]: 6; in vitro phosphorylation (% of best substrate) [28]: 3; in vitro phosphorylation (% of best substrate) [29]: 39; in vitro phosphorylation (% of best substrate) [30]: 9; in vitro phosphorylation (% of best substrate) [31]: 7; in vitro phosphorylation (% of best substrate) [32]: 7; in vitro phosphorylation (% of best substrate) [33]: 3; in vitro phosphorylation (% of best substrate) [34]: 12; in vitro phosphorylation (% of best substrate) [35]: 10; in vitro phosphorylation (% of best substrate) [36]: 1; in vitro phosphorylation (% of best substrate) [37]: 12; in vitro phosphorylation (% of best substrate) [38]: 1 |
| PKA | 3 | 5 | 3 | 1 | 5 | 86 | 10 | 1 | 4 | 1 | 3 | 3 | 2 | 1 | 18 | 63 | 84 | 21 | 2 | 0 | in vitro phosphorylation (% of best substrate) [21]: 69; in vitro phosphorylation (% of best substrate) [22]: 3; in vitro phosphorylation (% of best substrate) [23]: 2; in vitro phosphorylation (% of best substrate) [24]: 1; in vitro phosphorylation (% of best substrate) [25]: 3; in vitro phosphorylation (% of best substrate) [26]: 2; in vitro phosphorylation (% of best substrate) [27]: 5; in vitro phosphorylation (% of best substrate) [28]: 3; in vitro phosphorylation (% of best substrate) [29]: 87; in vitro phosphorylation (% of best substrate) [30]: 0; in vitro phosphorylation (% of best substrate) [31]: 1; in vitro phosphorylation (% of best substrate) [32]: 64; in vitro phosphorylation (% of best substrate) [33]: 2; in vitro phosphorylation (% of best substrate) [34]: 30; in vitro phosphorylation (% of best substrate) [35]: 81; in vitro phosphorylation (% of best substrate) [36]: 4; in vitro phosphorylation (% of best substrate) [37]: 100; in vitro phosphorylation (% of best substrate) [38]: 0 |
